Assay results from PMC10891604.

Target: T1, Lmo1172 (UniProt Q92CN5)
T1 sequence: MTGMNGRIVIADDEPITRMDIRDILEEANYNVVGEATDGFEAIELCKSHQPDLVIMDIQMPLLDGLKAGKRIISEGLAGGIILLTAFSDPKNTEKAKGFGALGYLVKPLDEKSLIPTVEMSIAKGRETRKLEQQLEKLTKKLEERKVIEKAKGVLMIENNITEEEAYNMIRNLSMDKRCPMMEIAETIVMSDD
Assay: EMSA
Conditions: EMSA: 200 ng DNA in Beyotime binding buffer, 6% non-denaturing PAGE, ethidium bromide staining; salt, pH and temperature not stated

CTAATTCACCTCCACTAATATTTTACAACGAATTTACCCATAATAACCAAAAATGTAATGAAATGTCCGATTCTTGTCATGAACGACCAAAAAAGAGCAGAATTGCCGATTTTTTGGATACATTTCAGAATATTCGAACGTGTAAAAAGGACTGTATAATAGGCTTAAAAACCCATATTAATATTTTATTTAAGTGAGTTTATTCATAAAAAAAACCAACTGCAAAAGAATGTTCACAGTTGGCTTTTCCATTTTA (double strand) [P2 promoter DNA]
binding: no binding
